B1: Retinoic acid receptor beta, residues 85 to 161; numbered along this chain, P10826 (parent)
chain: YKPCFVCQDKSSGYHYGVSACEGCKGFFRRSIQKNMIYTCHRDKNCVINKVTRNRCQYCRLQKCFEVGMSKESVRND

Data on 36 variants can be found in the Human Domainome abundance scans (Beltran et al. 2025).

± gives the uncertainty stated by the source.

Variants of B1 are the subject of this series. As to the kind of experiment: abundance fitness (aPCA) (normalised: wild type 0, dead -1); higher = more abundant; growth selection in yeast, the domain comes from the species named. Particulars: Homo sapiens.
YKPCFVCQDKSSGYHYGVSACEGCKGFFTRSIQKNMIYTCHRDKNCVINKVTRNRCQYCRLQKCFEVGMSKESVRND [R29T]: the abundance fitness was 0.211 ± 0.064.

Take YKPCFVCQDKSSGYHYGVSACEGCKGFFARSIQKNMIYTCHRDKNCVINKVTRNRCQYCRLQKCFEVGMSKESVRND [R29A]: the abundance fitness stood at 0.072 ± 0.043. As to YKPCFVCQDKSSGYHYGVSACEGCKGFFERSIQKNMIYTCHRDKNCVINKVTRNRCQYCRLQKCFEVGMSKESVRND [R29E], the abundance fitness came to 0.167 ± 0.048. For YKPCFVCQDKSSGYHYGVSACEGCKGFGRRSIQKNMIYTCHRDKNCVINKVTRNRCQYCRLQKCFEVGMSKESVRND [F28G], the abundance fitness was -0.82 ± 0.078.

For YKPCFVCQDKSSGYHYGVSACEGCKGFWRRSIQKNMIYTCHRDKNCVINKVTRNRCQYCRLQKCFEVGMSKESVRND [F28W], the abundance fitness was -0.123 ± 0.05. For YKPCFVCQDKSSGYHYGVSACEGCKGFCRRSIQKNMIYTCHRDKNCVINKVTRNRCQYCRLQKCFEVGMSKESVRND [F28C] the value was -0.895 ± 0.2.

Consider YKPCFVCQDKSSGYHYGVSACEGCKGFLRRSIQKNMIYTCHRDKNCVINKVTRNRCQYCRLQKCFEVGMSKESVRND [F28L], for which the abundance fitness was -0.588 ± 0.079. The result for YKPCFVCQDKSSGYHYGVSACEGCKGFKRRSIQKNMIYTCHRDKNCVINKVTRNRCQYCRLQKCFEVGMSKESVRND [F28K] reads -0.9 ± 0.19; that for YKPCFVCQDKSSGYHYGVSACEGCKGFYRRSIQKNMIYTCHRDKNCVINKVTRNRCQYCRLQKCFEVGMSKESVRND [F28Y], -0.439 ± 0.12. The result for YKPCFVCQDKSSGYHYGVSACEGCKGFARRSIQKNMIYTCHRDKNCVINKVTRNRCQYCRLQKCFEVGMSKESVRND [F28A] reads -0.534 ± 0.078; that for YKPCFVCQDKSSGYHYGVSACEGCKGFMRRSIQKNMIYTCHRDKNCVINKVTRNRCQYCRLQKCFEVGMSKESVRND [F28M], -0.47 ± 0.11; that for YKPCFVCQDKSSGYHYGVSACEGCKGFHRRSIQKNMIYTCHRDKNCVINKVTRNRCQYCRLQKCFEVGMSKESVRND [F28H], -0.338 ± 0.17. The result for YKPCFVCQDKSSGYHYGVSACEGCKGFERRSIQKNMIYTCHRDKNCVINKVTRNRCQYCRLQKCFEVGMSKESVRND [F28E] reads -0.983 ± 0.17; that for YKPCFVCQDKSSGYHYGVSACEGCKGFPRRSIQKNMIYTCHRDKNCVINKVTRNRCQYCRLQKCFEVGMSKESVRND [F28P], -1.06 ± 0.42; that for YKPCFVCQDKSSGYHYGVSACEGCKGFTRRSIQKNMIYTCHRDKNCVINKVTRNRCQYCRLQKCFEVGMSKESVRND [F28T], -0.604 ± 0.11. Take YKPCFVCQDKSSGYHYGVSACEGCKGFQRRSIQKNMIYTCHRDKNCVINKVTRNRCQYCRLQKCFEVGMSKESVRND [F28Q]: the abundance fitness was -0.807 ± 0.19. For YKPCFVCQDKSSGYHYGVSACEGCKGFVRRSIQKNMIYTCHRDKNCVINKVTRNRCQYCRLQKCFEVGMSKESVRND [F28V] the value was -0.688 ± 0.08; for YKPCFVCQDKSSGYHYGVSACEGCKGFNRRSIQKNMIYTCHRDKNCVINKVTRNRCQYCRLQKCFEVGMSKESVRND [F28N], -0.847 ± 0.33. The result for YKPCFVCQDKSSGYHYGVSACEGCKGFIRRSIQKNMIYTCHRDKNCVINKVTRNRCQYCRLQKCFEVGMSKESVRND [F28I] reads -0.453 ± 0.22; that for YKPCFVCQDKSSGYHYGVSACEGCKGMFRRSIQKNMIYTCHRDKNCVINKVTRNRCQYCRLQKCFEVGMSKESVRND [F27M], -0.454 ± 0.1; that for YKPCFVCQDKSSGYHYGVSACEGCKGGFRRSIQKNMIYTCHRDKNCVINKVTRNRCQYCRLQKCFEVGMSKESVRND [F27G], -0.715 ± 0.069. The result for YKPCFVCQDKSSGYHYGVSACEGCKGDFRRSIQKNMIYTCHRDKNCVINKVTRNRCQYCRLQKCFEVGMSKESVRND [F27D] reads -0.698 ± 0.17. As to YKPCFVCQDKSSGYHYGVSACEGCKGIFRRSIQKNMIYTCHRDKNCVINKVTRNRCQYCRLQKCFEVGMSKESVRND [F27I], the abundance fitness is -0.724 ± 0.32. For YKPCFVCQDKSSGYHYGVSACEGCKGLFRRSIQKNMIYTCHRDKNCVINKVTRNRCQYCRLQKCFEVGMSKESVRND [F27L] the value was -0.886 ± 0.12; for YKPCFVCQDKSSGYHYGVSACEGCKGAFRRSIQKNMIYTCHRDKNCVINKVTRNRCQYCRLQKCFEVGMSKESVRND [F27A], -0.748 ± 0.095. As to YKPCFVCQDKSSGYHYGVSACEGCKGCFRRSIQKNMIYTCHRDKNCVINKVTRNRCQYCRLQKCFEVGMSKESVRND [F27C], the abundance fitness is -0.703 ± 0.29. The result for YKPCFVCQDKSSGYHYGVSACEGCKGPFRRSIQKNMIYTCHRDKNCVINKVTRNRCQYCRLQKCFEVGMSKESVRND [F27P] reads -0.888 ± 0.22; that for YKPCFVCQDKSSGYHYGVSACEGCKGEFRRSIQKNMIYTCHRDKNCVINKVTRNRCQYCRLQKCFEVGMSKESVRND [F27E], -0.822 ± 0.14.

Turning to YKPCFVCQDKSSGYHYGVSACEGCKGSFRRSIQKNMIYTCHRDKNCVINKVTRNRCQYCRLQKCFEVGMSKESVRND [F27S], the abundance fitness is -0.773 ± 0.12. Turning to YKPCFVCQDKSSGYHYGVSACEGCKGQFRRSIQKNMIYTCHRDKNCVINKVTRNRCQYCRLQKCFEVGMSKESVRND [F27Q], the abundance fitness is -0.97 ± 0.21. For YKPCFVCQDKSSGYHYGVSACEGCKGYFRRSIQKNMIYTCHRDKNCVINKVTRNRCQYCRLQKCFEVGMSKESVRND [F27Y] the value was -0.57 ± 0.23.

In the case of YKPCFVCQDKSSGYHYGVSACEGCYGFFRRSIQKNMIYTCHRDKNCVINKVTRNRCQYCRLQKCFEVGMSKESVRND [K25Y], the abundance fitness is -0.047 ± 0.083. For the variant YKPCFVCQDKSSGYHYGVSACEGCWGFFRRSIQKNMIYTCHRDKNCVINKVTRNRCQYCRLQKCFEVGMSKESVRND [K25W], the abundance fitness came out at 0.008 ± 0.053.

For YKPCFVCQDKSSGYHYGVSACEGCTGFFRRSIQKNMIYTCHRDKNCVINKVTRNRCQYCRLQKCFEVGMSKESVRND [K25T], the abundance fitness is 0.048 ± 0.057. For YKPCFVCQDKSSGYHYGVSACEGCSGFFRRSIQKNMIYTCHRDKNCVINKVTRNRCQYCRLQKCFEVGMSKESVRND [K25S] the value was 0.099 ± 0.042.

In the case of YKPCFVCQDKSSGYHYGVSACEGCVGFFRRSIQKNMIYTCHRDKNCVINKVTRNRCQYCRLQKCFEVGMSKESVRND [K25V], the abundance fitness is 0.183 ± 0.038.
